Laboratory results taken from patent US20240132857.

Molecular target: Ub^1-74, P0CG48
Sequence (P0CG48 whole entry, looked up, tested part not stated): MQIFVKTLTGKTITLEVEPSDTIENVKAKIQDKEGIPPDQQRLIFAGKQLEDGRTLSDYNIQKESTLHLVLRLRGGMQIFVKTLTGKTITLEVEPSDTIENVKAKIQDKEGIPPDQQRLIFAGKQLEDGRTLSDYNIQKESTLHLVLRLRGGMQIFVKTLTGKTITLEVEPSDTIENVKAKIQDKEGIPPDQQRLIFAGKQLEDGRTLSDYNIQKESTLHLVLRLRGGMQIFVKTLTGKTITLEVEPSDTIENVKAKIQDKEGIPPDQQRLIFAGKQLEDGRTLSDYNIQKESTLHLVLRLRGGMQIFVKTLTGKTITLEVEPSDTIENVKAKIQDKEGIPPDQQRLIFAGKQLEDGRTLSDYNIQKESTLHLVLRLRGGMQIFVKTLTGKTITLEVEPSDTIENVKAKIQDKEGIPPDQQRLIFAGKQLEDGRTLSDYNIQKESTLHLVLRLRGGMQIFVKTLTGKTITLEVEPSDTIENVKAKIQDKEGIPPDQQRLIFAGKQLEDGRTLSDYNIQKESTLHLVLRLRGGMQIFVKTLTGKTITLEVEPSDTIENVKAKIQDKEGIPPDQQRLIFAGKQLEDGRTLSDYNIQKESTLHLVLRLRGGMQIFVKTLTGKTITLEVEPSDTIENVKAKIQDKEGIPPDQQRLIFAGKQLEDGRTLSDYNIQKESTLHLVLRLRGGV

| Protein | KM of di-ubiquitin formation, fold increase against wild-type Ube2N | kcat of di-ubiquitin formation, fold reduction against wild-type Ube2N |
| --- | --- | --- |
| Ube2N^D119A (protein) GMAGLPRRIIKETQRLLAEPVPGIKAEPDESNARYFHVVIAGPQDSPFEGGTFKLELFLPEEYPMAAPKVRFMTKIYHPNVDKLGRICLDILKDKWSPALQIRTVLLSIQALLSAPNPDAPLANDVAEQWKTNEAQAIETARAWTRLYAMNNI | modestly increased the KM by ˜4 and ˜7-fold, respectively | Mutation to alanine reduced kcat 100-fold |
| Ube2N^N123A (protein) GMAGLPRRIIKETQRLLAEPVPGIKAEPDESNARYFHVVIAGPQDSPFEGGTFKLELFLPEEYPMAAPKVRFMTKIYHPNVDKLGRICLDILKDKWSPALQIRTVLLSIQALLSAPNPDDPLAADVAEQWKTNEAQAIETARAWTRLYAMNNI |  | The ˜3-fold reduction in kcat |
| Ube2N^D124A (protein) GMAGLPRRIIKETQRLLAEPVPGIKAEPDESNARYFHVVIAGPQDSPFEGGTFKLELFLPEEYPMAAPKVRFMTKIYHPNVDKLGRICLDILKDKWSPALQIRTVLLSIQALLSAPNPDDPLANAVAEQWKTNEAQAIETARAWTRLYAMNNI |  | The ˜3-fold reduction in kcat |
| Ube2N^D119N (protein) GMAGLPRRIIKETQRLLAEPVPGIKAEPDESNARYFHVVIAGPQDSPFEGGTFKLELFLPEEYPMAAPKVRFMTKIYHPNVDKLGRICLDILKDKWSPALQIRTVLLSIQALLSAPNPDNPLANDVAEQWKTNEAQAIETARAWTRLYAMNNI | modestly increased the KM by ˜4 and ˜7-fold, respectively | mutation to asparagine 30-fold |
